Laboratory results reported in article PMC7423370 (Science Advances, 2020).

Target: T1, human CLC-7 with C-terminal tandem twin Strep-tag (human, UniProt P51798 1-805)
T1 sequence: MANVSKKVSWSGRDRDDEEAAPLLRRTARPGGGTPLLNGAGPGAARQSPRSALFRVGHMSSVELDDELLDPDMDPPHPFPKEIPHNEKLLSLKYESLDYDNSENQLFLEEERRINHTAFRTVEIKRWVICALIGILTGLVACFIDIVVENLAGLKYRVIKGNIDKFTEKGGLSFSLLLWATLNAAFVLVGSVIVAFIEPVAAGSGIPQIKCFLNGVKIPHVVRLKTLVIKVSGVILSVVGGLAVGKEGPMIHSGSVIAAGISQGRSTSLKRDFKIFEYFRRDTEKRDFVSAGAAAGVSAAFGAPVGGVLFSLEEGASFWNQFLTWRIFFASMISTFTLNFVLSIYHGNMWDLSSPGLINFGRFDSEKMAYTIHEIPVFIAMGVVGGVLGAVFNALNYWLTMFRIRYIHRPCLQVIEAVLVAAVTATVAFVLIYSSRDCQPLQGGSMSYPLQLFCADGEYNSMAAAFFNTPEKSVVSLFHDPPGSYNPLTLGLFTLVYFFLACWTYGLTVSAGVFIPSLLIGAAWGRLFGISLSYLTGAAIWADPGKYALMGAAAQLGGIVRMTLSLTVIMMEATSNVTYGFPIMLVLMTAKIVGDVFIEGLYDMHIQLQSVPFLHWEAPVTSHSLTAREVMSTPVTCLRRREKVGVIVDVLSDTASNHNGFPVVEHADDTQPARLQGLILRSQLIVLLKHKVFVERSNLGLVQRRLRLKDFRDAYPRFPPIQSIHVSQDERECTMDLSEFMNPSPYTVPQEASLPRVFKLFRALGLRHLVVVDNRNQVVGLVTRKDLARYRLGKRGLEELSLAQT
Assay: cryo-EM structure

B1: human Ostm1, no tag (natural protein)
chain: ALPFGSSPHRVFHDLLSEQQLLEVEDLSLSLLQGGGLGPLSLPPDLPDLDPECRELLLDFANSSAELTGCLVRSARPVRLCQTCYPLFQQVVSKMDNISRAAGNTSESQSCARSLLMADRMQIVVILSEFFNTTWQEANCANCLTNNSEELSNSTVYFLNLFNHTLTCFEHNLQGNAHSLLQTKNYSEVCKNCREAYKTLSSLYSEMQKMNELENKAEPGTHLCIDVEDAMNITRKLWSRTFNCSVPCSDTVPVIAVSVFILFLPVVFYLSSFLHSEQKKRKLILPKRLKSSTSFANIQENSN
modifications: glycosylation (NAG) at Asn93, Asn128, Asn163, Asn184, Asn194, Asn216, Asn263
binding result: binds
